The text below walks through data of the supplement of paper PMC5998384.

The subject of series [1] is HeLa Kyoto. In words: solubility in G1/S (NP-40 vs SDS abundance) (log2 ratio); higher = more soluble. Conditions: cell cycle stage: G1/S.
For series [2], the system named is HeLa Kyoto. In words: melting temperature (median over replicates), in situ; higher = more thermally stable.
In series [3] the test system is HeLa Kyoto. The series can be described thus: solubility change mitosis vs G1/S (difference of NP-40 vs SDS log2 ratios) (log2 ratio difference); higher = more soluble in mitosis.
Series [4] concerns HeLa Kyoto. The series can be described thus: thermal stability score vs G1/S (z-score of summed log2 fold changes over temperatures); higher = more thermally stable than in G1/S.
The mark [5] stands for this setting: cell cycle stage: early G1 (4.5 h after nocodazole release).
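Throughout, for melting temperature (median over replicates), in situ: HeLa Kyoto cells synchronized by double thymidine or nocodazole block, proteins quantified by TMT10plex mass spectrometry, three independent biological replicates.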
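Throughout, for solubility change mitosis vs G1/S (difference of NP-40 vs SDS log2 ratios): synchronized HeLa Kyoto cells (double thymidine block for G1/S, nocodazole release for mitosis), protein amounts in NP-40 versus SDS lysates quantified by mass spectrometry, three biological replicates.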
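Throughout, for solubility in G1/S (NP-40 vs SDS abundance): HeLa Kyoto cells arrested at G1/S by double thymidine block, proteins quantified by TMT10plex mass spectrometry in mild NP-40 versus SDS extracts, three biological replicates.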
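Throughout, for thermal stability score vs G1/S (z-score of summed log2 fold changes over temperatures): synchronized HeLa Kyoto cells, proteins quantified by TMT10plex mass spectrometry, three biological replicates, mitosis taken 0.5 h after nocodazole release, G1/S directly after double thymidine block.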

As for “MAAGFGRCCRVLRSISRFHWRSQHTKANRQREPGLGFSFEFTEQQKEFQATARKFAREEIIPVAAEYDKTGEYPVPLIRRAWELGLMNTHIPENCGGLGLGTFDACLISEELAYGCTGVQTAIEGNSLGQMPIIIAGNDQQKKKYLGRMTEEPLMCAYCVTEPGAGSDVAGIKTKAEKKGDEYIINGQKMWITNGGKANWYFLLARSDPDPKAPANKAFTGFIVEADTPGIQIGRKELNMGQRCSDTRGIVFEDVKVPKENVLIGDGAGFKVAMGAFDKTRPVVAAGAVGLAQRALDEATKYALERKTFGKLLVEHQAISFMLAEMAMKVELARMSYQRAAWEVDSGRRNTYYASIAKAFAGDIANQLATDAVQILGGNGFNTEYPVEKLMRDAKIYQIYEGTSQIQRLIVAREHIDKYKN [ACADM]”, the “solubility in G1/S (log2)” value in series [1] was 0.248. Moreover, the melting temperature in series [2] (cell cycle stage: G1/S) and in series [2] (cell cycle stage: mitosis) was 54.7 °C each time. The “solubility change mitosis (log2)” value in series [3] is -0.0323. Moreover, the thermal stability score in series [4] (setting [5]) is -1.04; in series [4] (cell cycle stage: mitosis), -2.26.
On to “MAAGGGGGSSKASSSSASSAGALESSLDRKFQSVTNTMESIQGLSSWCIENKKHHSTIVYHWMKWLRRSAYPHRLNLFYLANDVIQNCKRKNAIIFRESFADVLPEAAALVKDPSVSKSVERIFKIWEDRNVYPEEMIVALREALSTTFKTQKQLKENLNKQPNKQWKKSQTSTNPKAALKSKIVAEFRSQALIEELLLYKRSEDQIELKEKQLSTMRVDVCSTETLKCLKDKTGGKKFSKEFEEASSKLEEFVNGLDKQVKNGPSLTEALENAGIFYEAQYKEVKVVANAYKTFANRVNNLKKKLDQLKSTLPDPEESPVPSPSMDAPSPTGSESPFQGMGGEESQSPTMESEKSATPEPVTDNRDVEDMELSDVEDDGSKIIVEDRKEKPAEKSAVSTSVPTKPTENISKASSCTPVPVTMTATPPLPKPVNTSLSPSPALALPNLANVDLAKISSILSSLTSVMKNTGVSPASRPSPGTPTSPSNLTSGLKTPAPATTTSHNPLANILSKVEITPESILSALSKTQTQSAPALQGLSSLLQSVTGNPVPASEAASQSTSASPANTTVSTIKGRNLPSSAQPFIPKSFNYSPNSSTSEVSSTSASKASIGQSPGLPSTTFKLPSNSLGFTATHNTSPAAPPTEVTICQSSEVSKPKLESESTSPSLEMKIHNFLKGNPGFSGLNLNIPILSSLGSSAPSESHPSDFQRGPTSTSIDNIDGTPVRDERSGTPTQDEMMDKPTSSSVDTMSLLSKIISPGSSTPSSTRSPPPGRDESYPRELSNSVSTYRPFGLGSESPYKQPSDGMERPSSLMDSSQEKFYPDTSFQEDEDYRDFEYSGPPPSAMMNLEKKPAKSILKSSKLSDTTEYQPILSSYSHRAQEFGVKSAFPPSVRALLDSSENCDRLSSSPGLFGAFSVRGNEPGSDRSPSPSKNDSFFTPDSNHNSLSQSTTGHLSLPQKQYPDSPHPVPHRSLFSPQNTLAAPTGHPPTSGVEKVLASTISTTSTIEFKNMLKNASRKPSDDKHFGQAPSKGTPSDGVSLSNLTQPSLTATDQQQQEEHYRIETRVSSSCLDLPDSTEEKGAPIETLGYHSASNRRMSGEPIQTVESIRVPGKGNRGHGREASRVGWFDLSTSGSSFDNGPSSASELASLGGGGSGGLTGFKTAPYKERAPQFQESVGSFRSNSFNSTFEHHLPPSPLEHGTPFQREPVGPSSAPPVPPKDHGGIFSRDAPTHLPSVDLSNPFTKEAALAHAAPPPPPGEHSGIPFPTPPPPPPPGEHSSSGGSGVPFSTPPPPPPPVDHSGVVPFPAPPLAEHGVAGAVAVFPKDHSSLLQGTLAEHFGVLPGPRDHGGPTQRDLNGPGLSRVRESLTLPSHSLEHLGPPHGGGGGGGSNSSSGPPLGPSHRDTISRSGIILRSPRPDFRPREPFLSRDPFHSLKRPRPPFARGPPFFAPKRPFFPPRY [RPRD2]”, for which the “solubility in G1/S (log2)” value in series [1] was -0.0214. The melting temperature in series [2] (cell cycle stage: G1/S) was 48 °C; in series [2] (cell cycle stage: mitosis) it was 49.2 °C. The “solubility change mitosis (log2)” value in series [3] was found to be 0.0816. Moreover, the thermal stability score in series [4] (setting [5]) came to 2.07; in series [4] (cell cycle stage: mitosis), 4.95.
For “MAAGGGGSCDPLAPAGVPCAFSPHSQAYFALASTDGHLRVWETANNRLHQEYVPSAHLSGTCTCLAWAPARLQAKESPQRKKRKSEAVGMSNQTDLLALGTAVGSILLYSTVKGELHSKLISGGHDNRVNCIQWHQDSGCLYSCSDDKHIVEWNVQTCKVKCKWKGDNSSVSSLCISPDGKMLLSAGRTIKLWVLETKEVYRHFTGHATPVSSLMFTTIRPPNESQPFDGITGLYFLSGAVHDRLLNVWQVRSENKEKSAVMSFTVTDEPVYIDLTLSENKEEPVKLAVVCRDGQVHLFEHILNGYCKKPLTSNCTIQIATPGKGKKSTPKPIPILAAGFCSDKMSLLLVYGSWFQPTIERVALNSREPHMCLVRDISNCWAPKVETAITKVRTPVMNSEAKVLVPGIPGHHAAIKPAPPQTEQVESKRKSGGNEVSIEERLGAMDIDTHKKGKEDLQTNSFPVLLTQGLESNDFEMLNKVLQTRNVNLIKKTVLRMPLHTIIPLLQELTKRLQGHPNSAVLMVQWLKCVLTVHASYLSTLPDLVPQLGTLYQLMESRVKTFQKLSHLHGKLILLITQVTASEKTKGATSPGQKAKLVYEEESSEEESDDEIADKDSEDNWDEDEEESESEKDEDVEEEDEDAEGKDEENGEDRDTASEKELNGDSDLDPENESEEE [WDR43]”, the “solubility in G1/S (log2)” value in series [1] is -1.29. The values for the melting temperature in series [2] (cell cycle stage: G1/S) and in series [2] (cell cycle stage: mitosis) were 58.6 °C and 55.7 °C, respectively. Also, the “solubility change mitosis (log2)” value in series [3] amounted to 0.783. Besides, the thermal stability score in series [4] (setting [5]) was -1.7; in series [4] (cell cycle stage: mitosis) it was -6.5.
For “MAAGIVASRRLRDLLTRRLTGSNYPGLSISLRLTGSSAQEEASGVALGEAPDHSYESLRVTSAQKHVLHVQLNRPNKRNAMNKVFWREMVECFNKISRDADCRAVVISGAGKMFTAGIDLMDMASDILQPKGDDVARISWYLRDIITRYQETFNVIERCPKPVIAAVHGGCIGGGVDLVTACDIRYCAQDAFFQVKEVDVGLAADVGTLQRLPKVIGNQSLVNELAFTARKMMADEALGSGLVSRVFPDKEVMLDAALALAAEISSKSPVAVQSTKVNLLYSRDHSVAESLNYVASWNMSMLQTQDLVKSVQATTENKELKTVTFSKL [ECH1]”, in series [1], the “solubility in G1/S (log2)” value amounted to 0.165. Besides, the results for the melting temperature in series [2] (cell cycle stage: G1/S) and in series [2] (cell cycle stage: mitosis) were 53.4 °C and 53.5 °C, respectively. The “solubility change mitosis (log2)” value in series [3] is -0.00393. Further, the figures for the thermal stability score in series [4] (setting [5]) and in series [4] (cell cycle stage: mitosis) were -1.52 and -2.22, respectively.
